In assay [1] the target is soluble HLA-DR1 (HLA-DR alpha truncated after Asn192 with a C-terminal nine amino acid HA epitope tail; HLA-DR1 beta truncated after Lys198), made in Baculovirus-infected insect cells (human). Nature of the assay: release ELISA as Table 36; unlabeled hMBP(90-102) 250 uM alone against prebound biotin-hMBP(90-102) on tethered HLA-DR1. On the technique in general: An ELISA detects its analyte on a solid surface through an enzyme-linked reagent.

For assay [2] the target is unchanged. The assay is described as follows: exchange ELISA: tethered HLA-DR1 preloaded with unlabeled hMBP(90-102) 50 uM, washed; biotin-hMBP(90-102) 50 uM alone, no AE peptide, 1 h 37 C.
Assay [3] shares this target. The assay is described as follows: release ELISA as Table 36; AE101 1 uM, without unlabeled hMBP(90-102).
For assay [4] the target is unchanged. The assay is described as follows: loading ELISA: empty tethered HLA-DR1 with biotin-hMBP(90-102) 50 uM and AE peptide 64 uM, 1 h 37 C; biotin bound read by avidin-HRP.
Assay [5] shares this target. The assay is described as follows: exchange ELISA: tethered HLA-DR1 preloaded with unlabeled hMBP(90-102) 50 uM, washed; AE peptide plus biotin-hMBP(90-102) 50 uM, 1 h 37 C; biotin bound as fraction of positive control (overnight loading).
For assay [6] the target is unchanged. Nature of the assay: release ELISA: soluble HLA-DR1 tethered by 12CA5 and preloaded with biotin-hMBP(90-102); AE peptide 64 uM, 1 h 37 C, no unlabeled peptide; biotin still bound read by avidin-HRP (1.0 = PBS control, 0.0 = no DR1; low value = released).

As to “unlabeled human myelin basic protein peptide hMBP(90-102) (from UniProt P02686 90-102)”, the Relative Release (fraction of positive control o.d.) in assay [1] is 0.81.
In the case of “N-terminally biotin-labeled human myelin basic protein peptide hMBP(90-102) (from UniProt P02686 90-102)”, the Relative Binding (fraction of positive control o.d.) in assay [2] stood at 0.08.

B1: AE101 (peptide)
peptide: YRMKLPKSAKPVSQMR
In the case of B1, the Relative Release (fraction of positive control o.d.) in assay [3] is 0.02; in assay [6] it was -0.33. Also, the Relative Enhancement (of biotin-hMBP(90-102) binding to empty HLA-DR1) (relative to no AE peptide = 1) in assay [4] came to 2.66. The Relative Binding (of biotin-hMBP(90-102) to HLA-DR1) (fraction of positive control o.d.) in assay [5] is 0.31.
